Target: T1, recombinant human interleukin 1 alpha (IL-1α) (human, UniProt P01583 113-271)
T1 sequence (looked up): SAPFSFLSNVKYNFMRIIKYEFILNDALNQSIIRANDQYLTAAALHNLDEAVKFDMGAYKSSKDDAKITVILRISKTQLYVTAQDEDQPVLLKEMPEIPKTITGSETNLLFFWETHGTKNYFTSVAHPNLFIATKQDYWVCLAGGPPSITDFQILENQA
Experiment: cell-based or functional assay

HUVEC-based potency assay (ICAM-1 expression by flow cytometry), IC50: 3.4 ng/mL
B1: XIA11 human monoclonal antibody (antibody, V domains shown)
VH: QVQLVQSGAEVKKPGSSVKVSCKASGGRFTNYAILWVRQAPGQGLQWLGGIIPIFDETDHAQDFQDRLTITVDESMTTAYMELSSLRPEDTAIYYCATGSNSYYGLYWGQGTLVTVSS
VL: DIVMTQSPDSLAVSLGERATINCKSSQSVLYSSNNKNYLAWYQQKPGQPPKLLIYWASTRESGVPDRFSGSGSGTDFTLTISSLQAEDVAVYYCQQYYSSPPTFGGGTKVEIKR
